The values below come from patent US20220204569.

In series [1] the test system is TAL-HT x12 GFP fusion (Xanthomonas (engineered)). Conditions: FRAP T1/2 67.84 ± 8.43 s (n = 4), live HeLa; nuclear CV 1.1.
Series [2] relates to ChrocodiLE (TAL-HT x15 GFP fusion) (Xanthomonas (engineered)). Conditions: FRAP T1/2 68.53 ± 8.45 s (n = 4), live HeLa; nuclear CV 1.1.
The test system of series [3] is GFP fusion, 0 TAL-repeats (control) (Xanthomonas (engineered)). The following applies: FRAP T1/2 1.87 ± 0.28 s (n = 3), live HeLa; nuclear CV 0.53.
Series [4] relates to TAL-HT x8 GFP fusion (Xanthomonas (engineered)). The following applies: FRAP T1/2 30.97 ± 6.79 s (n = 5), live HeLa; nuclear CV 0.87.
Series [5] deals with TAL-HT x3 GFP fusion (Xanthomonas (engineered)). Conditions: FRAP T1/2 6.30 ± 1.86 s (n = 5), live HeLa; nuclear CV 1.2.
Series [6] concerns TAL-HT x2 GFP fusion (Xanthomonas (engineered)). Conditions: FRAP T1/2 2.91 ± 0.22 s (n = 5), live HeLa; nuclear CV 0.40, uniform localization as control.
Series [7] concerns TAL-HT x1 GFP fusion (Xanthomonas (engineered)). Conditions: FRAP T1/2 2.09 ± 0.40 s (n = 5), live HeLa; nuclear CV 0.45, uniform localization as control.

Consider HeLa nuclear genomic DNA (chromatin), for which the FRAP recovery half-time came out at 67.8 s in series [1]; 68.5 s in series [2]; 1.87 s in series [3]; 31 s in series [4]; 6.3 s in series [5]; 2.91 s in series [6]. Also, the FRAP recovery half-time in series [7] came to 2.09 s.
